Laboratory results from paper PMC7959530.

Molecular target: asialofetuin (UniProt P12763)
Test: ELISA

Chain of UniProt P12763 (P12763 19-359): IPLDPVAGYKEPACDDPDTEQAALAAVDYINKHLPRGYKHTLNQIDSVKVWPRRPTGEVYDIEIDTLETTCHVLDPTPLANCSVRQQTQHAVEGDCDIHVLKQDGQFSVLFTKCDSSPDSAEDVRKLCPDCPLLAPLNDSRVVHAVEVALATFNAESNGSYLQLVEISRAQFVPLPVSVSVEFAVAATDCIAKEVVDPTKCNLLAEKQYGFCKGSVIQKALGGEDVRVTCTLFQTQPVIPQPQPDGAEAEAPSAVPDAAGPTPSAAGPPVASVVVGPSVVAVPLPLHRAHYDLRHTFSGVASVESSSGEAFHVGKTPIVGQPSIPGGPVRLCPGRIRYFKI

EC50: 140 nM
Substance: PX-Gal3_(Δ116) (fusion protein of APEX2 and galectin-3 lacking the N-terminal domain) (domain or fragment)
